The source of these data is US20190263918A1 (SHANGHAI JIAO TONG UNIVERSITY SCHOOL OF MEDICINE, published 2019).

The chains are these.
B9: human FcγRIIA-R131 extracellular domain protein (receptor, UniProt P12318 34-217, looked up)
chain: QAAAPPKAVLKLEPPWINVLQEDSVTLTCQGARSPESDSIQWFHNGNLIPTHTQPSYRFKANNNDSGEYTCQTGQTSLSDPVHLTVLSEWLVLQTPHLEFQEGETIMLRCHSWKDKPLVKVTFFQNGKSQKFSRLDPTFSIPQANHSHSGDYHCTGNIGYTLFSSKPVTITVQVPSMGSSSPMG
notes: extracellular domain; SPR: His-tagged, immobilised; ELISA: biotinylated; also called hFcγRIIA-R131; CD32a
B10: human FcγRIIB extracellular domain protein (receptor, UniProt P31994 43-217, looked up)
chain: TPAAPPKAVLKLEPQWINVLQEDSVTLTCRGTHSPESDSIQWFHNGNLIPTHTQPSYRFKANNNDSGEYTCQTGQTSLSDPVHLTVLSEWLVLQTPHLEFQEGETIVLRCHSWKDKPLVKVTFFQNGKSKKFSRSDPNFSIPQANHSHSGDYHCTGNIGYTLYSSKPVTITVQAP
notes: extracellular domain; SPR: His-tagged, immobilised; ELISA: biotinylated; also called hFcγRIIB; CD32b

The target in assay [1] is B10. The assay can be described thus: SPR (refers to Table 4, Fc fragments).
Assay [2] addresses T1, recombinant human CD40 protein (human, UniProt P25942 21-193).
T1 construct: Bought; coated on the ELISA plate; also called hCD40
The experiment in a line: ELISA: plate coated with recombinant human CD40, antibody in gradient dilutions, biotinylated anti-human Igκ light chain secondary antibody, SAV-HRP, A650. The method, then:
For assay on anti-human CD40 antibodies, an ELISA plate was coated with recombinant human CD40 protein (Novoprotein Scientific Inc.) overnight at atmospheric temperature, blocked using 1% BSA at room temperature for 2 h, and then washed three times with PBST (0.05% Tween 20 in PBS). To each well was added […] gradient dilutions of the human agonistic CD40 antibody. The plate was incubated at room temperature for 1 h and washed four times with PBST. Then, 100 ng/ml biotinylated secondary antibody against human Igκ light chain was added, incubated at room temperature for 1 h and washed 4 times with PBST. SAV-HRP at an appropriate concentration was added, incubated at room temperature for 1 h. Then, chromogenic substrate was added to react for 5 minutes, and optical absorbance was determined at 650 nm.
On the technique in general: An ELISA detects its analyte on a solid surface through an enzyme-linked reagent.

The target in assay [3] is B9. The assay can be described thus: ELISA: plate coated with the anti-human CD40 antibody, biotinylated human FcγRIIA-R131 extracellular domain, streptavidin-HRP, A650 [FcγRIIA-R131 panels]. As to the method:
(§1) The ELISA plate was coated with 100 μL antibody at an appropriate concentration overnight, supernatant being discarded. The plate was blocked with 1% BSA in PBS for 2 hours, followed by washing with PBST (PBS with 0.05% Tween 20). Then, biotinylated FcγR extracellular domain protein (Sino Biologic Inc., Beijing China) at a concentration as appropriate was added and incubated at room temperature for 1 hour, supernatant being discarded, followed by PBST wash. Streptavidin-HRP (BD Biosciences) was added and incubated at room temperature for 1 hour for detection of biotin protein. After removal of supernatant, developing solution was added to react for 20-40 minutes, and absorbance was determined at 650 nm (A650).

In assay [4] the target is B9. The assay can be described thus: ELISA: plate coated with the anti-human CD40 antibody, biotinylated human FcγRIIA-R131 extracellular domain, streptavidin-HRP, A650 [upper FcγRIIA-R131 panel]. As to the method: as §1
In assay [5] the target is B10. The experiment in a line: SPR; fold against G1. (In general: Surface plasmon resonance follows binding to a sensor surface in real time, without labels.)
Assay [6] concerns the target T2, human FcγRI extracellular domain protein (human, UniProt P12314 16-292).
T2 construct: extracellular domain; also called hFcγRI; CD64
The experiment in a line: SPR, Biacore T100, FcγR extracellular domain immobilised.

The target of assay [7] is B10. The experiment in a line: SPR, Biacore T100, FcγR extracellular domain immobilised, 1:1 model.
The target in assay [8] is B9. Described as above.
For assay [9], the target named is T2, human FcγRI extracellular domain protein. Described as above.
In assay [10] the target is T3, human FcγRIIIA-F158 extracellular domain protein (human, UniProt P08637 17-208).
T3 construct: extracellular domain; SPR: His-tagged, immobilised; also called hFcγRIIIA-F158; CD16a
The assay can be described thus: SPR, Biacore T100, FcγR extracellular domain immobilised.

The target of assay [11] is Fc fragment of heavy chain constant region G1 (hIgG1) (human, UniProt P0DOX5 234-449 = IgG part). The experiment in a line: SPR, Biacore T100, FcγR extracellular domain immobilised, 1:1 model.
Assay [12] concerns the target B10. The experiment in a line: SPR; [lower of KD(hFcγRIIA-R131) and KD(hFcγRIIIA-F158)]/KD(hFcγRIIB).

T2 sequence (P12314 16-292): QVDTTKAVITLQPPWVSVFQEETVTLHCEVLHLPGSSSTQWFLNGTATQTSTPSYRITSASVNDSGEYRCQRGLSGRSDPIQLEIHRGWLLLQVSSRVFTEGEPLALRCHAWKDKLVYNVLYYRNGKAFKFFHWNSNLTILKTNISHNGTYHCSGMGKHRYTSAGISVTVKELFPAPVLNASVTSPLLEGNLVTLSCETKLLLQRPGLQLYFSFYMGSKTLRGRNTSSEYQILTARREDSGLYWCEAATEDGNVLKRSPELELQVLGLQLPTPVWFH
T3 sequence (P08637 17-208): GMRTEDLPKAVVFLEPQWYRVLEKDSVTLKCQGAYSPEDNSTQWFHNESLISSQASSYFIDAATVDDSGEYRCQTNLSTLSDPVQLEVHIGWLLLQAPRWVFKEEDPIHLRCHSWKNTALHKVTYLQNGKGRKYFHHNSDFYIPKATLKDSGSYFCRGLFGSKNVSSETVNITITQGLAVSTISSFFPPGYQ
T1 sequence (P25942 21-193 limits assumed): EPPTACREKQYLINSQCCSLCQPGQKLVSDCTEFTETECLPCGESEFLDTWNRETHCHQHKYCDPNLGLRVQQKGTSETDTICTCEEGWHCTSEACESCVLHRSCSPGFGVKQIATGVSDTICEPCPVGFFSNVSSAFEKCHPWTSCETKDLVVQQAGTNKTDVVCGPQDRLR

B1: Anti-mCD40-hIgG2-GASDALIE (antibody)
heavy: EVQLVESDGGLVQPGRSLKLPCAASGFTFSDYYMAWVRQAPTKGLEWVASISYDGSSTYYRDSVKGRFTISRDNAKSTLYLQMDSLRSEDTATYYCGRHSSYFDYWGQGVMVTVSSASTKGPSVFPLAPCSRSTSESTAALGCLVKDYFPEPVTVSWNSGALTSGVHTFPAVLQSSGLYSLSSVVTVPSSNFGTQTYTCNVDHKPSNTKVDKTVERKCCVECPPCPAPELLAGPDVFLFPPKPKDTLMISRTPEVTCVVVDVSHEDPEVKFNWYVDGVEVHNAKTKPREEQYNSTYRVVSVLTVLHQDWLNGKEYKCKVSNKALPLPEEKTISKAKGQPREPQVYTLPPSRDELTKNQVSLTCLVKGFYPSDIAVEWESNGQPENNYKTTPPVLDSDGSFFLYSKLTVDKSRWQQGNVFSCSVMHEALHNHYTQKSLSLSPGK
light: DTVLTQSPALAVSPGERVTISCRASDSVSTLMHWYQQKPGQQPKLLIYLASHLESGVPARFSGSGSGTDFTLTIDPVEADDTATYYCQQSWNDPWTFGGGTKLELKRTVAAPSVFIFPPSDEQLKSGTASVVCLLNNFYPREAKVQWKVDNALQSGNSQESVTEQDSKDSTYSLSSTLTLSKADYEKHKVYACEVTHQGLSSPVTKSFNRGEC
notes: Chimeric anti-murine CD40 antibody
B1: the binding result in assay [1] is recorded as “binds”.

B2: Anti-hCD40-hIgG1 (antibody)
heavy: not shown
light: DIQMTQSPSSVSASVGDRVTITCRASQGIYSWLAWYQQKPGKAPNLLIYTASTLQSGVPSRFSGSGSGTDFTLTISSLQPEDFATYYCQQANIFPLTFGGGTKVEIKRTVAAPSVFIFPPSDEQLKSGTASVVCLLNNFYPREAKVQWKVDNALQSGNSQESVTEQDSKDSTYSLSSTLTLSKADYEKHKVYACEVTHQGLSSPVTKSFNRGEC
notes: Human anti-human CD40 antibody with the light chain and VH of CP-870893; heavy chain constant region G1
In general, EC50 (read off the curve) refers to the concentration at which the effect is half-maximal. On to B2, for which the “EC50 (read off the curve)” value in [2] is approximately 0.2 mg/L. In addition, the binding result in assay [3] is on record as “binds”.

B3: Anti-hCD40-hIgG3 (antibody)
heavy: not shown
light: DIQMTQSPSSVSASVGDRVTITCRASQGIYSWLAWYQQKPGKAPNLLIYTASTLQSGVPSRFSGSGSGTDFTLTISSLQPEDFATYYCQQANIFPLTFGGGTKVEIKRTVAAPSVFIFPPSDEQLKSGTASVVCLLNNFYPREAKVQWKVDNALQSGNSQESVTEQDSKDSTYSLSSTLTLSKADYEKHKVYACEVTHQGLSSPVTKSFNRGEC
notes: Human anti-human CD40 antibody, heavy chain constant region G3
For B3, the concentration for a half-maximal effect (EC50 (read off the curve)) in assay [2] was approximately 0.1 mg/L.

B4: Anti-hCD40-hIgG2(V11) (antibody)
heavy: not shown
light: DIQMTQSPSSVSASVGDRVTITCRASQGIYSWLAWYQQKPGKAPNLLIYTASTLQSGVPSRFSGSGSGTDFTLTISSLQPEDFATYYCQQANIFPLTFGGGTKVEIKRTVAAPSVFIFPPSDEQLKSGTASVVCLLNNFYPREAKVQWKVDNALQSGNSQESVTEQDSKDSTYSLSSTLTLSKADYEKHKVYACEVTHQGLSSPVTKSFNRGEC
notes: Human anti-human CD40 antibody, heavy chain constant region V11(H2), i.e. JAC1; also called anti-human CD40 antibody comprising JAC1
Take B4: the binding result in assay [4] is given as “binds”.

B5: Anti-hCD40-hIgG2-NA (antibody)
heavy: not shown
light: DIQMTQSPSSVSASVGDRVTITCRASQGIYSWLAWYQQKPGKAPNLLIYTASTLQSGVPSRFSGSGSGTDFTLTISSLQPEDFATYYCQQANIFPLTFGGGTKVEIKRTVAAPSVFIFPPSDEQLKSGTASVVCLLNNFYPREAKVQWKVDNALQSGNSQESVTEQDSKDSTYSLSSTLTLSKADYEKHKVYACEVTHQGLSSPVTKSFNRGEC
notes: Human anti-human CD40 antibody, heavy chain constant region G2-NA (N297A)
Consider B5, for which the binding result in [3] was “no binding”.

B6: Fc fragment of heavy chain constant region G2 (hIgG2) (other)
chain: PPVAGPSVFLFPPKPKDTLMISRTPEVTCVVVDVSHEDPEVQFNWYVDGVEVHNAKTKPREEQFNSTFRVVSVLTVVHQDWLNGKEYKCKVSNKGLPAPIEKTISKTKGQPREPQVYTLPPSREEMTKNQVSLTCLVKGFYPSDIAVEWESNGQPENNYKTTPPMLDSDGSFFLYSKLTVDKSRWQQGNVFSCSVMHEALHNHYTQKSLSLSPGK
As to B6, the “folds of increase in hFcγRIIB binding” value in assay [5] was less than 0.4 fold. Besides, in assay [6], the binding result is “no binding”.

B7: Fc fragment of heavy chain constant region G1-GASDALIE (hIgG1 G236A/S239D/A330L/I332E) (other)
chain: PELLAGPDVFLFPPKPKDTLMISRTPEVTCVVVDVSHEDPEVKFNWYVDGVEVHNAKTKPREEQYNSTYRVVSVLTVLHQDWLNGKEYKCKVSNKALPLPEEKTISKAKGQPREPQVYTLPPSRDELTKNQVSLTCLVKGFYPSDIAVEWESNGQPENNYKTTPPVLDSDGSFFLYSKLTVDKSRWQQGNVFSCSVMHEALHNHYTQKSLSLSPGK
For orientation: Kd means the equilibrium constant for the complex coming apart. Read a high Kd as lower affinity. Turning to B7, the values for the Kd in assay [7] and in assay [8] were 0.74 µM and 0.063 µM, respectively.

B8: Fc fragment of heavy chain constant region V9(H1) (hIgG1 G237D/P238D/P271G/A330R) (other)
chain: PELLGDDSVFLFPPKPKDTLMISRTPEVTCVVVDVSHEDGEVKFNWYVDGVEVHNAKTKPREEQYNSTYRVVSVLTVLHQDWLNGKEYKCKVSNKALPRPIEKTISKAKGQPREPQVYTLPPSRDELTKNQVSLTCLVKGFYPSDIAVEWESNGQPENNYKTTPPVLDSDGSFFLYSKLTVDKSRWQQGNVFSCSVMHEALHNHYTQKSLSLSPGK
As to B8, the Kd in assay [9] stood at 0.58 µM; in [7] it was 0.094 µM; in assay [8] it was 4.1 µM. In addition, in assay [10], the binding result is recorded as “no binding”.
On to B9, for which the Kd in assay [11] came out at 1.2 µM.
On the same count and under the same terms, the result for B10 reads 3 µM.

B11: Fc fragment of heavy chain constant region V11(H1) (hIgG1 G237D/P238D/H268D/P271G/A330R) (other)
chain: PELLGDDSVFLFPPKPKDTLMISRTPEVTCVVVDVSDEDGEVKFNWYVDGVEVHNAKTKPREEQYNSTYRVVSVLTVLHQDWLNGKEYKCKVSNKALPRPIEKTISKAKGQPREPQVYTLPPSRDELTKNQVSLTCLVKGFYPSDIAVEWESNGQPENNYKTTPPVLDSDGSFFLYSKLTVDKSRWQQGNVFSCSVMHEALHNHYTQKSLSLSPGK
As to B11, in assay [12], the I/A ratio came to 271. Besides, the “folds of increase in hFcγRIIB binding” value in assay [5] is 94 fold. The figures for the dissociation constant Kd in [9], in assay [7] and in assay [8] were 0.23 µM, 0.014 µM and 3.8 µM, respectively. In addition, the binding result in assay [10] is on record as “no binding”.
